According to publication PMC10679500, “Posttranslational modification and heme cavity architecture of human eosinophil peroxidase—insights from first crystal structure and biochemical characterization” (The Journal of Biological Chemistry, 2023):

Target: T1, eosinophil peroxidase heavy chain (human, UniProt P11678 251-715, Glu380 ester-linked to the heme cofactor (hydroxymethyl group on pyrrole ring A); N-glycans at Asn327 and Asn363)
T1 construct: human eosinophil peroxidase (EPO), C-terminal heavy chain of the mature enzyme; G250/V251-T715; N-terminus heterogeneous (G250 or V251); first resolved residue in the crystal is Val251; One of the two polypeptides of mature leukocyte EPO; part of the sample may begin at G250; A mixture of glycoforms was crystallized; also called EPO H-chain; HC
T1 sequence (looked up): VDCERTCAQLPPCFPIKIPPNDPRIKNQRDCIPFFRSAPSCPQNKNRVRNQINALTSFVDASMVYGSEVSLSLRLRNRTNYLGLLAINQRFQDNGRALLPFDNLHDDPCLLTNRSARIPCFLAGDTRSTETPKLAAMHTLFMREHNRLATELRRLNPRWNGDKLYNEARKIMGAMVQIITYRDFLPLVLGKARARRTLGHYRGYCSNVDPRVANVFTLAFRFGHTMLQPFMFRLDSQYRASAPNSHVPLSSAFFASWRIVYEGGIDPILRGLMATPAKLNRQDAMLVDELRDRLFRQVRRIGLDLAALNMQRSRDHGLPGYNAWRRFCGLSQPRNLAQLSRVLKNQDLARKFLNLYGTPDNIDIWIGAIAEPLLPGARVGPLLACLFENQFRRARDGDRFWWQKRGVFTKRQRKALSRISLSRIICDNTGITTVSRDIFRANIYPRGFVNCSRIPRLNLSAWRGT
Assay: crystal structure; mixture of EPO glycoforms from human leukocytes, 10 mg/ml in 5 mM phosphate pH 7.0; crystallized in 0.2 M trisodium citrate pH 4.1, 20% (w/v) PEG, vapor diffusion, 22 °C; 1.6 Å; one monomer per asymmetric unit
Details: both partners purified

- binding result: binds
B1: eosinophil peroxidase light chain (domain or fragment)
chain: not shown
modifications: Asp232 ester-linked to the heme cofactor (hydroxymethyl group on pyrrole ring C)
notes: human eosinophil peroxidase (EPO), N-terminal light chain of the mature enzyme after removal of signal peptide, propeptide (18-139) and the peptide V/AFTA/G; R140-R244/V245; C-terminus heterogeneous by MS (77.2% arginine, 23.8% valine as terminal residue); last resolved residue in the crystal is Arg244; One of the two polypeptides of mature leukocyte EPO; a minor part of the sample ends at V245; …
